According to publication PMC5177888, “An Adaptation To Life In Acid Through A Novel Mevalonate Pathway” (Scientific Reports, 2016):

How the values were obtained:
[1] = target: the molecule itself; assay: SEC; recombinant Ta0893 (co-expressed with GroEL/ES) mixed with Biorad gel filtration standard, Superdex S200 10/300 GL, 50 mM sodium phosphate pH 6.5, 500 mM NaCl; fractions assayed for MBD activity; apparent molecular weight from the activity profile
[2] = target: the molecule itself; assay: SEC; T. acidophilum cell-free lysate mixed with Biorad gel filtration standard, Superdex S200 10/300 GL, 50 mM sodium phosphate pH 6.5, 500 mM NaCl; fractions assayed for MBD activity; apparent molecular weight from the activity profile

B1: mevalonate 3,5-bisphosphate decarboxylase (Ta0893) from Thermoplasma acidophilum, recombinant, full length, co-expressed with GroEL/GroES (enzyme, UniProt Q9HJS1 1-405, looked up)
chain: MDTAGMEHSVSWISSNSDELILRSWISSRMDIAELHRAGDDIKEMMKSEGYYSEPSKYEAELSDGNITFAYSYPIKAFEKFLGYYDRENRIAFNPSISMRTDFSFCLAACRYRKNGKTDTVVLDGYADNKYYKKAKFALDKFRSEYSINGSFDFYIKRYRRYQKAKGLSESSAVAAAVSRALISNVFGDDAAKDDIFVSRYARLVSGSGTRAAHDGISMWLSYPGMDSRDCVAFKVGKSNENLNYGVFPKYSDVATDNAHSIAVNSVFYGTWVSEKFSNVKRLISDHFDINDLLKIGENDMLRLNSILMSGGLIIQTPDSLRILKEILKFKSKNEGFYFTADTGPSIAIFSFDRSLIDEFRENVNDEYIEGSYDFKGYNNRMRDFIREAQEYFTQTPGEDEEDRL
notes: Ta0893, mevalonate 3,5-bisphosphate decarboxylase, Thermoplasma acidophilum; NCBI WP_010901303.1; full-length protein; predicted monomer 46.3 kDa; gene codon optimized and synthesized, cloned in pET28a(+) between NdeI and XhoI; The Ni-NTA eluate may still hold E. coli proteins such as the co-expressed chaperones; also called MBD; recombinant Ta0893; source: E. coli BL21(DE3) Gold, co-expressed …
[1]
  stoichiometry N: 2

B2: mevalonate 3,5-bisphosphate decarboxylase (Ta0893), native, in Thermoplasma acidophilum lysate (enzyme, UniProt Q9HJS1 1-405, looked up)
chain: MDTAGMEHSVSWISSNSDELILRSWISSRMDIAELHRAGDDIKEMMKSEGYYSEPSKYEAELSDGNITFAYSYPIKAFEKFLGYYDRENRIAFNPSISMRTDFSFCLAACRYRKNGKTDTVVLDGYADNKYYKKAKFALDKFRSEYSINGSFDFYIKRYRRYQKAKGLSESSAVAAAVSRALISNVFGDDAAKDDIFVSRYARLVSGSGTRAAHDGISMWLSYPGMDSRDCVAFKVGKSNENLNYGVFPKYSDVATDNAHSIAVNSVFYGTWVSEKFSNVKRLISDHFDINDLLKIGENDMLRLNSILMSGGLIIQTPDSLRILKEILKFKSKNEGFYFTADTGPSIAIFSFDRSLIDEFRENVNDEYIEGSYDFKGYNNRMRDFIREAQEYFTQTPGEDEEDRL
notes: Ta0893, mevalonate 3,5-bisphosphate decarboxylase, Thermoplasma acidophilum; NCBI WP_010901303.1; predicted monomer 46.3 kDa; followed as MBD activity in the lysate; also called MBD; native MBD; source: endogenous, T. acidophilum cell-free lysate
[2]
  stoichiometry N: 2
